Results published in article doi:10.1101/452904 (bioRxiv, 2018).

Molecular target: FLAG-Sec23A (human, UniProt Q15436 1-765)
Experiment: pull-down

FLAG-Sec23A, sequence (Q15436 whole entry): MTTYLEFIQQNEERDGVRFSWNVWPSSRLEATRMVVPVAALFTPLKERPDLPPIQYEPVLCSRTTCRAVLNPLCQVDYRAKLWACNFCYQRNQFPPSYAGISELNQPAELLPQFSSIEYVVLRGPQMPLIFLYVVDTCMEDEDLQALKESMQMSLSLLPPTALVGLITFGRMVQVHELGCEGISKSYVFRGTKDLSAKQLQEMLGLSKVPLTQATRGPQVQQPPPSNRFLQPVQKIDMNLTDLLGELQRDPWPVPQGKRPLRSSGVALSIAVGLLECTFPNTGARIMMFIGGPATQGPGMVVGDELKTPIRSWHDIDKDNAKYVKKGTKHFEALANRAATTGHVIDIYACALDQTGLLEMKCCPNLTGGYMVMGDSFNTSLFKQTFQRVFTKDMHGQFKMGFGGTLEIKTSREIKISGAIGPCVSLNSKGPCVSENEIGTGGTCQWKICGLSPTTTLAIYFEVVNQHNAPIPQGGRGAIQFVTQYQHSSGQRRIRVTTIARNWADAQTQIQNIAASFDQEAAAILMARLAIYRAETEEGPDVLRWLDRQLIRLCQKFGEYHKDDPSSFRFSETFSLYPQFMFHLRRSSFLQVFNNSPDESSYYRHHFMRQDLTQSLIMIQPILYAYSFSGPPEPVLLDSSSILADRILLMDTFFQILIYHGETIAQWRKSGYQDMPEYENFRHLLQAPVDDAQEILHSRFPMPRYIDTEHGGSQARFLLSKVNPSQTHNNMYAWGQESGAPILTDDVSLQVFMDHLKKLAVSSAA

B1: GST-tagged TANGO1-PRD (1651–1907 aa)-His6 (domain or fragment)
chain: NTQNPPRRGPLSQNGSFGPSPVSGGECSPPLTVEPPVRPLSATLNRRDMPRSEFGSVDGPLPHPRWSAEASGKPSPSDPGSGTATMMNSSSRGSSPTRVLDEGKVNMAPKGPPPFPGVPLMSTPMGGPVPPPIRYGPPPQLCGPFGPRPLPPPFGPGMRPPLGLREFAPGVPPGRRDLPLHPRGFLPGHAPFRPLGSLGPREYFIPGTRLPPPTHGPQEYPPPPAVRDLLPSGSRDEPPPASQSTSQDCSQALKQSP
B1: binds.
